Starred links: 1 amine or outer side, 2 acyl side, 3 side chain; linkers in the order of their positions; H or OH if unused. Non-standard residues stand in square brackets, D forms with d. Residues, ends and D or L forms follow the SMILES beside them. No end group written: not given here. *: point of attachment. Phe(4-CH2SO3H) = N[C@@H](Cc1ccc(CS(=O)(=O)O)cc1)C(=O)O; sY = N[C@@H](Cc1ccc(OS(=O)(=O)O)cc1)C(=O)O; C18 diacid = O=C(O)CCCCCCCCCCCCCCCCC(=O)*; γGlu = O=C(O)[C@H](CCC(=O)[*:2])N[*:1]; NMeF = CN[C@@H](Cc1ccccc1)C(=O)O; dNMeD = CN[C@H](CC(=O)O)C(=O)O; Nle = CCCC[C@H](N)C(=O)O; AEEA = NCCOCCOCC(=O)O
Columns and labels:
[1] = Chemical stability compared to CCK-8s, 8 mM phosphate pH 7.4, RP-UHPLC; format: physicochemical; conditions: for Absolute purity loss (pp): 1 mM in 8 mM sodium phosphate pH 7.4
Protocol: The resulting samples were stored in HPLC vials at 5° C. and 37° C. for 2 weeks. The samples were analysed in the beginning of the experiment (t=0), after one week and after two weeks by RP-UHPLC with a mobile phase containing phosphate and with a gradient of acetonitrile. UV detection at 215 nm was used. Samples after one week and two weeks were analysed twice. The calculations were done as described above, and the results are summarised in Table 7 (average of two determinations).

[2] = biological target: T1, human cholecystokinin-2 receptor (CCK-2R) (Homo sapiens, UniProt P32239); experiment: In vitro receptor binding to CCK-2R, SPA displacement of [125I]-CCK-8s from plasma membranes
T1 construct: host or cells: 1321-N1 cells (plasma membranes prepared by Evotec AG Hamburg)
T1 sequence (P32239 1-447): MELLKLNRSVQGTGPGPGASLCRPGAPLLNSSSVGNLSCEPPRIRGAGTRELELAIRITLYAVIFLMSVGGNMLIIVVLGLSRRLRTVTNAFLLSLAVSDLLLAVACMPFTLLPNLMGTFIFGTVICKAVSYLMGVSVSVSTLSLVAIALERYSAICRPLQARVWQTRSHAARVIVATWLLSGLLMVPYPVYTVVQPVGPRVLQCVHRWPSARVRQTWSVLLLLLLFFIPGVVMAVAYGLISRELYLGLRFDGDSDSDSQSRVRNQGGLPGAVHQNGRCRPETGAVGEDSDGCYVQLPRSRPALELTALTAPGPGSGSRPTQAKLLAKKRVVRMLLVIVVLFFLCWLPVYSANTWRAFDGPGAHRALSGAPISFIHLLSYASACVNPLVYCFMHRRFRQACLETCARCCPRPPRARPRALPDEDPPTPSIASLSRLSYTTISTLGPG

[3] = Pharmacokinetic (PK) studies in mini-pig, i.v.; format: in vivo; conditions: minipig, plasma, iv; i.v. 5 nmol/kg, female Göttingen mini-pigs, harmonic mean; read-out: Plasma terminal half-life (T½) (converted)
Protocol: The purpose of this study is to determine the protraction in vivo of a number of CCK derivatives of the invention after intravenous (i.v.) administration to mini-pigs, i.e. the prolongation of their time in the body and thereby their time of action. This was done in pharmacokinetic (PK) studies, where the terminal half-life of the derivative in question was determined. By terminal half-life is generally meant the period of time it takes to halve a certain plasma concentration, measured after the initial distribution phase.
The derivatives of the compounds listed in Table 4 were subjected to PK studies as described in the following.
Female Göttingen mini-pigs obtained from Ellegaard Göttingen Minipigs (Dalmose, Denmark) at approximately 6 months of age and weighing approximately 17 kg were used in the studies. […] Additional blood samples were collected for the derivatives of Examples 2, 4, 7, 8, and 9 at the following time points: 5, 12, 22, 28 and 144 hours. The blood samples were collected into test tubes containing EDTA buffer for stabilisation and kept on ice for max. 20 minutes before centrifugation. The centrifugation procedure to separate plasma was: 4° C., approx. 2500 g for 10 minutes. Plasma was collected and immediately transferred to Micronic tubes stored at −20° C. until assayed.
Plasma was pipetted into Micronic tubes on dry ice, and kept at −20° C. until analysed for plasma concentration of the respective CCK derivative using LC-MS. The plasma samples (including standard curve samples used for quantitation of unknowns and prepared from blank plasma spiked with CCK compound at a concentration range of 0.5-2000 nM for the compounds of Examples 3, 5, 6 or 0.5-1000 nM for the remaining Example compounds) were protein precipitated using three volumes of methanol and centrifuged (16000×g, 4° C., 20 min). The supernatants were injected into the chromatographic system (TurboFlow Transcend 1250 & 10 valve VIM, Thermo Fisher Scientific) which consisted of an initial Turboflow Cyclone purification column 0.5×50 mm (Thermo Fischer Scientific) and an eluting Aeris peptide 3.6 μm XB—C18 column 2.1×50 mm (Phenomenex) kept at 60° C.
The CCK derivatives of Examples 2-9 were eluted using LC-MS method I: A chromatographic gradient system with mobile phases consisting of water with 0.1 v/v % formic acid (mobile phase A) and water/acetonitrile 10/90 v/v with 0.1 v/v % formic acid (mobile phase B). The 2 minute gradient started at 60% mobile phase B and ended at 100% mobile phase B with a flow of 0.4 mL/min. The CCK derivatives were detected and quantified after on-line infusion of the LC flow to the LTQ OrbiTrap Discovery mass spectrometer (Thermo Fischer Scientific) equipped with an electrospray interface operated in negative mode, ESI− (Sheath gas flow rate at 40, Aux gas flow rate at 30, Sweep gas flow rate at 2, Spray voltage at 2.8 kV, Capillary temp. at 275° C., S-lens RF level at −125 and Heater temp. at 325° C.).
The remaining Example compounds were eluted using LC-MS method II: A chromatographic gradient system with mobile phases consisting of water with 1 v/v % formic acid (mobile phase A) and water/acetonitrile 10/90 v/v with 1 v/v % formic acid (mobile phase B). The initial 0.25 minute gradient started at 0% mobile phase B and ended at 70% mobile phase B followed by the second 2.2 minute gradient started at 70% mobile phase B and ended at 75% mobile phase B with a flow of 0.4 mL/min. These CCK derivatives were detected and quantified as described above except that the Spray voltage was 4.0 kV.
Individual plasma concentration-time profiles were analysed by a non-compartmental model in Phoenix v. 6.3 (Pharsight Inc., Mountain View, Calif., USA).

[4] = biological target: T1, human cholecystokinin-2 receptor (CCK-2R); experiment: In vitro potency on CCK-2R, whole cell functional assay (IP1 accumulation, IP-One HTRF); format: cell-based; conditions: 1321-N1 cells stably expressing CCK-2R; IP1 accumulation; highest dose tested 1×10^6 pM; read-out: EC50 (CCK-2R)
[5] = biological target: T2, human cholecystokinin-1 receptor (human), P32238; experiment: cell-based or functional assay
T2 chain: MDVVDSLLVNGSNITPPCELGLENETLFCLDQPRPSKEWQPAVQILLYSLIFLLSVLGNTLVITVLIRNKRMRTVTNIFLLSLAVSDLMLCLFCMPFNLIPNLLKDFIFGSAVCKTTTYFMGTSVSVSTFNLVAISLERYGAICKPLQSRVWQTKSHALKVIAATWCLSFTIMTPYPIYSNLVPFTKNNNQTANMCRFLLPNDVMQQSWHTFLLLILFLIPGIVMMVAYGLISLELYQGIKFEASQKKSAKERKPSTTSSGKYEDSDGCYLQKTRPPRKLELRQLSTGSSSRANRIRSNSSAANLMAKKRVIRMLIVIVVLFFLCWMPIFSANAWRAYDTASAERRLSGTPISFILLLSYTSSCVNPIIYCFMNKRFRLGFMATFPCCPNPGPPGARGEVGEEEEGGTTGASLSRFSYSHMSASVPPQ

[6] = biological target: T3, human cholecystokinin-2 receptor (human), P32239; experiment: cell-based or functional assay
T3 chain: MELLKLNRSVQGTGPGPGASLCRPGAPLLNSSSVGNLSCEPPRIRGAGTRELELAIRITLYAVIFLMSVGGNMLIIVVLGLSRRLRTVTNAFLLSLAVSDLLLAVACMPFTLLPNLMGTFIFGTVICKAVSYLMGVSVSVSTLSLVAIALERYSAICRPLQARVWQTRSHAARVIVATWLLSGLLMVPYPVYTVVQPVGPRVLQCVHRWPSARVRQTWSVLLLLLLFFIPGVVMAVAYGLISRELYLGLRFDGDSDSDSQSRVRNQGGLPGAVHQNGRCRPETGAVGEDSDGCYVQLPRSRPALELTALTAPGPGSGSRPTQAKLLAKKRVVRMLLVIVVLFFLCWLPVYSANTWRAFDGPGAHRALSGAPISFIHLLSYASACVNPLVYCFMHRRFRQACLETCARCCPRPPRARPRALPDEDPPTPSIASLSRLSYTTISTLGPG

[7] = biological target: T2, human cholecystokinin-1 receptor …; experiment: SPA competition vs [125I]-CCK-8s, membranes
[8] = biological target: T3, human cholecystokinin-2 receptor …; experiment: SPA competition vs [125I]-CCK-8s, membranes

For `CSCC[C@H](NC(=O)[C@H](Cc1ccc(OS(=O)(=O)O)cc1)NC(=O)[C@@H](N)CC(=O)O)C(=O)NCC(=O)N[C@@H](Cc1c[nH]c2ccccc12)C(=O)N[C@@H](CCSC)C(=O)N[C@@H](CC(=O)O)C(=O)N[C@@H](Cc1ccccc1)C(N)=O` [CCK-8s, H-Asp-Tyr(SO3H)-Met-Gly-Trp-Met-Asp-Phe-NH2], the “purity at the start of the experiment (incubation time 0)” value ([1]; 1 mM in 8 mM sodium phosphate pH 7.4, t=0) was 97.94%, the “Absolute purity loss (pp)” value ([1]; 5° C., 1 week) was −0.04 pp and the “Absolute purity loss (pp)” value ([1]; 5° C., 2 weeks) was 0.09 pp. For the same molecule, the “Absolute purity loss (pp)” value ([1]; 37° C., 1 week) was 1.42 pp and the “Absolute purity loss (pp)” value ([1]; 37° C., 2 weeks) was 3.33 pp.

In the case of `CCCC[C@H](NC(=O)[C@H](Cc1c[nH]c2ccccc12)NC(=O)CNC(=O)[C@H](CC(C)C)NC(=O)[C@H](Cc1ccc(CS(=O)(=O)O)cc1)NC(=O)[C@H](CC(=O)O)NC(=O)COCCOCCNC(=O)COCCOCCNC(=O)CC[C@H](NC(=O)CCCCCCCCCCCCCCCCC(=O)O)C(=O)O)C(=O)N(C)[C@H](CC(=O)O)C(=O)N(C)[C@@H](Cc1ccccc1)C(N)=O` [Example 5, 2-[2-[2-[[2-[2-[2-[[(4S)-4-Carboxy-4-(17-carboxyheptadecanoylamino)butanoyl]amino]ethoxy]ethoxy]acetyl]amino]ethoxy]ethoxy]acetyl-Asp-Phe(4-sulfomethyl)-Leu-Gly-Trp-Nle-DMeAsp-MePhe-amide] ({C18 diacid-γGlu-AEEA-AEEA}-D[Phe(4-CH2SO3H)]LGW[Nle][dNMeD][NMeF]-NH2), the IC50 [2] is reported as 380 nM and the half-life [3] is reported as 106 h.

`CCCC[C@H](NC(=O)[C@H](Cc1c[nH]c2ccccc12)NC(=O)CNC(=O)[C@H](CC(C)C)NC(=O)[C@H](Cc1ccc(OS(=O)(=O)O)cc1)NC(=O)[C@H](CC(=O)O)NC(=O)CCCCCCCCCCCCCCCCC(=O)O)C(=O)N(C)[C@H](CC(=O)O)C(=O)N(C)[C@@H](Cc1ccccc1)C(N)=O` [Example 38, 17-Carboxyheptadecanoyl-Asp-sTyr-Leu-Gly-Trp-Nle-DMeAsp-MePhe-amide] showed an EC50 [4] greater than 1000 nM and a half-life [3] of 3 h.

Molecule D[sY]LGWI[DMeAsp][NMeF]-NH2 [Asp-sTyr-Leu-Gly-Trp-Ile-DMeAsp-MePhe-amide] has an EC50 (CCK-1R) [5] of 0.24 nM, an EC50 (CCK-2R) [6] greater than 1000 nM and an IC50 [7] of 0.078 nM. For the same molecule, the IC50 [8] was 6100 nM.

{C18 diacid-γGlu-AEEA-AEEA}-D[sY]LGWI[DMeAsp][NMeF]-NH2 gave an EC50 (CCK-1R) [5] of 0.18 nM, an EC50 (CCK-2R) [6] of 260 nM and an IC50 [7] of 0.1 nM. The IC50 [8] was 2300 nM.

{C18 diacid-γGlu-AEEA-AEEA}-D[sY]LGWL[DMeAsp][NMeF]-NH2 gave an EC50 (CCK-1R) [5] of 0.27 nM, an EC50 (CCK-2R) [6] of 79 nM and an IC50 [8] of 420 nM.

Work on {C18 diacid-γGlu-AEEA-AEEA}-D[sY]LGWV[DMeAsp][NMeF]-NH2 yielded an EC50 (CCK-1R) [5] of 0.14 nM, an EC50 (CCK-2R) [6] of 730 nM and an IC50 [7] of 0.31 nM. It also gave an IC50 [8] of 6400 nM.

For {C18 diacid-γGlu-AEEA-AEEA}-D[sY]LGWP[DMeAsp][NMeF]-NH2, the EC50 (CCK-1R) [5] was 0.17 nM, the EC50 (CCK-2R) [6] was 150 nM and the IC50 [7] was 0.19 nM. It also gave an IC50 [8] of 1000 nM.
